Data from IntAct's records for PubMed 25910212.

B1: Cullin-4B (Homo sapiens), Q13620 (parent)
chain: MMSQSSGSGDGNDDEATTSKDGGFSSPSPSAAAAAQEVRSATDGNTSTTPPTSAKKRKLNSSSSSSSNSSNEREDFDSTSSSSSTPPLQPRDSASPSTSSFCLGVSVAASSHVPIQKKLRFEDTLEFVGFDAKMAEESSSSSSSSSPTAATSQQQQLKNKSILISSVASVHHANGLAKSSTTVSSFANSKPGSAKKLVIKNFKDKPKLPENYTDETWQKLKEAVEAIQNSTSIKYNLEELYQAVENLCSYKISANLYKQLRQICEDHIKAQIHQFREDSLDSVLFLKKIDRCWQNHCRQMIMIRSIFLFLDRTYVLQNSMLPSIWDMGLELFRAHIISDQKVQNKTIDGILLLIERERNGEAIDRSLLRSLLSMLSDLQIYQDSFEQRFLEETNRLYAAEGQKLMQEREVPEYLHHVNKRLEEEADRLITYLDQTTQKSLIATVEKQLLGEHLTAILQKGLNNLLDENRIQDLSLLYQLFSRVRGGVQVLLQQWIEYIKAFGSTIVINPEKDKTMVQELLDFKDKVDHIIDICFLKNEKFINAMKEAFETFINKRPNKPAELIAKYVDSKLRAGNKEATDEELEKMLDKIMIIFRFIYGKDVFEAFYKKDLAKRLLVGKSASVDAEKSMLSKLKHECGAAFTSKLEGMFKDMELSKDIMIQFKQYMQNQNVPGNIELTVNILTMGYWPTYVPMEVHLPPEMVKLQEIFKTFYLGKHSGRKLQWQSTLGHCVLKAEFKEGKKELQVSLFQTLVLLMFNEGEEFSLEEIKQATGIEDGELRRTLQSLACGKARVLAKNPKGKDIEDGDKFICNDDFKHKLFRIKINQIQMKETVEEQASTTERVFQDRQYQIDAAIVRIMKMRKTLSHNLLVSEVYNQLKFPVKPADLKKRIESLIDRDYMERDKENPNQYNYIA
partner: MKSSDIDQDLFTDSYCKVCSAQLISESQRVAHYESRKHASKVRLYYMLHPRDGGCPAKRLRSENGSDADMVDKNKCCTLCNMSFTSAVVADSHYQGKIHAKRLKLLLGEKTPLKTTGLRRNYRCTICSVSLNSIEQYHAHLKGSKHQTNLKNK
B2: Casein kinase I isoform epsilon (Homo sapiens), P49674 (parent)
chain: MELRVGNKYRLGRKIGSGSFGDIYLGANIASGEEVAIKLECVKTKHPQLHIESKFYKMMQGGVGIPSIKWCGAEGDYNVMVMELLGPSLEDLFNFCSRKFSLKTVLLLADQMISRIEYIHSKNFIHRDVKPDNFLMGLGKKGNLVYIIDFGLAKKYRDARTHQHIPYRENKNLTGTARYASINTHLGIEQSRRDDLESLGYVLMYFNLGSLPWQGLKAATKRQKYERISEKKMSTPIEVLCKGYPSEFSTYLNFCRSLRFDDKPDYSYLRQLFRNLFHRQGFSYDYVFDWNMLKFGAARNPEDVDRERREHEREERMGQLRGSATRALPPGPPTGATANRLRSAAEPVASTPASRIQPAGNTSPRAISRVDRERKVSMRLHRGAPANVSSSDLTGRQEVSRIPASQTSVPFDHLGK
partner: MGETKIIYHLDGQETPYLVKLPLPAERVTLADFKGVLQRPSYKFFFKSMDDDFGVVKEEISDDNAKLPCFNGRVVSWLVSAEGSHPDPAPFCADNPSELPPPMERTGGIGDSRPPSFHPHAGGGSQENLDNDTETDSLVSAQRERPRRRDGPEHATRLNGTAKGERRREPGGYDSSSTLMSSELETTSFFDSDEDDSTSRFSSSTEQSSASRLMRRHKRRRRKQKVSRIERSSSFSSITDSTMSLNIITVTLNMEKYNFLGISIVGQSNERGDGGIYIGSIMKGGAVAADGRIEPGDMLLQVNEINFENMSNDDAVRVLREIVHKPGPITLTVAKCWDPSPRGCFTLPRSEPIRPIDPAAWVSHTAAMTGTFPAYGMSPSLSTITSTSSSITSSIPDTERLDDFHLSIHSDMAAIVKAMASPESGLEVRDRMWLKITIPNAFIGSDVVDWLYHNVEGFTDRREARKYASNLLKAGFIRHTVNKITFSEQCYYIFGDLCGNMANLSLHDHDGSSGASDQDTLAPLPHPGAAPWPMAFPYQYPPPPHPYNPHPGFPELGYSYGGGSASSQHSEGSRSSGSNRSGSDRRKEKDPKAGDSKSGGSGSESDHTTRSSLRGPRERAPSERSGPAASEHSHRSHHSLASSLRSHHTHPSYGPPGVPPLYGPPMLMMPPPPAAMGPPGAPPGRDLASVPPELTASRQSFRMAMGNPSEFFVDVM
B3: Phakinin (Homo sapiens), Q13515 (parent)
chain: MSERRVVVDLPTSASSSMPLQRRRASFRGPRSSSSLESPPASRTNAMSGLVRAPGVYVGTAPSGCIGGLGARVTRRALGISSVFLQGLRSSGLATVPAPGLERDHGAVEDLGGCLVEYMAKVHALEQVSQELETQLRMHLESKATRSGNWGALRASWASSCQQVGEAVLENARLMLQTETIQAGADDFKERYENEQPFRKAAEEEINSLYKVIDEANLTKMDLESQIESLKEELGSLSRNYEEDVKLLHKQLAGCELEQMDAPIGTGLDDILETIRIQWERDVEKNRVEAGALLQAKQQAEVAHMSQTQEEKLAAALRVELHNTSCQVQSLQAETESLRALKRGLENTLHDAKHWHDMELQNLGAVVGRLEAELREIRAEAEQQQQERAHLLARKCQLQKDVASYHALLDREESG
partner: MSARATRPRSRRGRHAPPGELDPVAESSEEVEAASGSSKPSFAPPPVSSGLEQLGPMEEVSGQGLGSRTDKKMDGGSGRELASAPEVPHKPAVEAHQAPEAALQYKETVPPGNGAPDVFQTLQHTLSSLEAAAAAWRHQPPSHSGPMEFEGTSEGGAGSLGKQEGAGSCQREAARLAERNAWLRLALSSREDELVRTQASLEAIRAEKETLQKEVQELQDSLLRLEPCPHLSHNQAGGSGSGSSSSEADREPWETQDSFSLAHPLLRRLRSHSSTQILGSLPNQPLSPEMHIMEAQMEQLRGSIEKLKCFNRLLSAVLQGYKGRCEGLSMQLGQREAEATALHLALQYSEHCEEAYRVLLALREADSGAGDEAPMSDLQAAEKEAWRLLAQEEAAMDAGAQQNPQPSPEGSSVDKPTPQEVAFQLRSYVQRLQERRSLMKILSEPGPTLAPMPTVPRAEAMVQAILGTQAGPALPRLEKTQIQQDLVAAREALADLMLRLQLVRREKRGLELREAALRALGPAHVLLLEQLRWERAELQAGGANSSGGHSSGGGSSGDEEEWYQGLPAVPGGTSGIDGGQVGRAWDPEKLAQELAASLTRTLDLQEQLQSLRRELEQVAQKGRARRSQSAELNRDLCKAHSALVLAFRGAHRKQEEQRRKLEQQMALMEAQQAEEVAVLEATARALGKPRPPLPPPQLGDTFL
B4: LHFPL tetraspan subfamily member 5 protein (Homo sapiens), Q8TAF8 (parent)
chain: MVKLLPAQEAAKIYHTNYVRNSRAVGVMWGTLTICFSVLVMALFIQPYWIGDSVNTPQAGYFGLFSYCVGNVLSSELICKGGPLDFSSIPSRAFKTAMFFVALGMFLIIGSIICFSLFFICNTATVYKICAWMQLAAATGLMIGCLVYPDGWDSSEVRRMCGEQTGKYTLGHCTIRWAFMLAILSIGDALILSFLAFVLGYRQDKLLPDDYKADGTEEV
partner: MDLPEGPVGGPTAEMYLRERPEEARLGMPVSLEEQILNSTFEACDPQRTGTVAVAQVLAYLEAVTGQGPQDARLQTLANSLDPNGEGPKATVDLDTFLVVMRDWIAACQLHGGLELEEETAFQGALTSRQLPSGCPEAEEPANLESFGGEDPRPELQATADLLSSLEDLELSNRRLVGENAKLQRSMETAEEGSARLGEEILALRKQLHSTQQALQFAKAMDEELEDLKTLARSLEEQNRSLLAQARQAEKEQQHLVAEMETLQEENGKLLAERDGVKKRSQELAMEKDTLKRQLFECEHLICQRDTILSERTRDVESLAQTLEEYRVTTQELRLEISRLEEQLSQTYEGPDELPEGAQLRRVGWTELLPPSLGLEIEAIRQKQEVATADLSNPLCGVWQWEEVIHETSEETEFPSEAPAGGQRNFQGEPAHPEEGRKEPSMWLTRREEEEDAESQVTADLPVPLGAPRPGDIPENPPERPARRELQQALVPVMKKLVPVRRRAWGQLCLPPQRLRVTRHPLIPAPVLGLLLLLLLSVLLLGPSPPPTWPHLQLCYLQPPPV
B5: Cytochrome P450 1A1 (Homo sapiens), P04798 (parent)
chain: MLFPISMSATEFLLASVIFCLVFWVIRASRPQVPKGLKNPPGPWGWPLIGHMLTLGKNPHLALSRMSQQYGDVLQIRIGSTPVVVLSGLDTIRQALVRQGDDFKGRPDLYTFTLISNGQSMSFSPDSGPVWAARRRLAQNGLKSFSIASDPASSTSCYLEEHVSKEAEVLISTLQELMAGPGHFNPYRYVVVSVTNVICAICFGRRYDHNHQELLSLVNLNNNFGEVVGSGNPADFIPILRYLPNPSLNAFKDLNEKFYSFMQKMVKEHYKTFEKGHIRDITDSLIEHCQEKQLDENANVQLSDEKIINIVLDLFGAGFDTVTTAISWSLMYLVMNPRVQRKIQEELDTVIGRSRRPRLSDRSHLPYMEAFILETFRHSSFVPFTIPHSTTRDTSLKGFYIPKGRCVFVNQWQINHDQKLWVNPSEFLPERFLTPDGAIDKVLSEKVIIFGMGKRKCIGETIARWEVFLFLAILLQRVEFSVPLGVKVDMTPIYGLTMKHACCEHFQMQLRS

Variants of: B1
Details: with ZMAT4, Q9H898-2

Row | Variant | effect of a mutation on the interaction
1 | T213I | with no effect
2 | V745A | with no effect

Variants of: B2
Details: with dvl3_human DVL3, Q92997

Row | Variant | effect of a mutation on the interaction
3 | S408N | disrupting interaction strength

Variants of: B3
Details: with usbp1_human USHBP1, Q8N6Y0

Row | Variant | effect of a mutation on the interaction
4 | R339H | with no effect
5 | A407D | with no effect

Variants of: B4
Details: with kash5_human KASH5, Q8N6L0

Row | Variant | effect of a mutation on the interaction
6 | Y127C | with no effect
7 | T165M | with no effect

Variants of: B5
Details: with CMTM5, Q96DZ9-2
Sequence of CMTM5, Q96DZ9-2 (Q96DZ9 other isoform, or with tags, fused parts or gaps): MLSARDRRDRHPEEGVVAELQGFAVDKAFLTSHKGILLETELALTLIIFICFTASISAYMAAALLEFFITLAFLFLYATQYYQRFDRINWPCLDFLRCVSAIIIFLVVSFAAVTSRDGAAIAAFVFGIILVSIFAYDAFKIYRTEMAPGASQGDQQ

Row | Variant | effect of a mutation on the interaction
8 | I462V | with no effect
9 | T461N | with no effect
